The values below come from patent US20160304566A1.

The target of assay [1] is human IgG-HRP (human). Kind of assay: ELISA, coated protein, human IgG-HRP, n=12.
Assay [2] concerns the target human IgG-HRP (human). Kind of assay: ELISA, SpA coated, human IgG-HRP, PBS in place of F(ab)2, n=5.

For SpA5wt (from UniProt P38507 37-327), in the assay with human IgG-HRP (human) [1], the OD450 nm, Mean value turned out to be 0.625 OD.
As for SpA (252) (from UniProt P38507 37-508), the OD450 nm, Mean value with human IgG-HRP (human) [1] stood at 0.635 OD. Further, in the assay with human IgG-HRP (human) [2], the OD450 nm, Ave was determined as 0.641 OD.
In turn, “SpA5 (RRVV) (from UniProt P38507 37-327)” returned an OD450 nm, Mean value with human IgG-HRP (human) [1] of 0.062 OD.
